The source of these data is paper PMC3906126.

What all share (test): ITC
On the technique in general: ITC needs no label: the signal is the heat of the interaction.

In test [1] the target is WW1 domain of WWOX (residues 16–50) (human) (UniProt Q9NZC7).
For test [2], the target named is WW1–WW2 tandem module of WWOX (residues 16–91) (human) (UniProt Q9NZC7).
Test [3] addresses WW2W domain of WWOX (WW2 domain, residues 57–91, with the Y85W substitution) (human) (UniProt Q9NZC7).

Chain of WW1 domain of WWOX (residues 16–50) (human) (Q9NZC7 16-50): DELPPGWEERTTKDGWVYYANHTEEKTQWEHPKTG
Chain of WW2W domain of WWOX (WW2 domain, residues 57–91, with the Y85W substitution) (human) (Q9NZC7 57-91 Y85W): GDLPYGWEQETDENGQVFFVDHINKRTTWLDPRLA
Chain of WW1–WW2 tandem module of WWOX (residues 16–91) (human) (Q9NZC7 16-91): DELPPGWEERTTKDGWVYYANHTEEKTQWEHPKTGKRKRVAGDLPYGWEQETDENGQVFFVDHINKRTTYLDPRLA

Usually Kd stands for the constant that tells how readily two partners part at equilibrium. High values mean weaker binding, low ones tighter binding. “ErbB4_PY3 peptide (12-mer spanning the PY3 PPXY motif of the ICD of ErbB4)”: the Kd in test [1] stood at 144 µM; in test [2] it was 68 µM; in test [3], 54 µM. The dH in test [1] was -6.21 kcal/mol; in test [3], -4.15 kcal/mol.
In test [1], “PY3_A+2 (ErbB4_PY3 peptide with alanine at position +2)” had a Kd of 287 µM and a dH of -3.63 kcal/mol.
In test [1], “PY3_A+4 (ErbB4_PY3 peptide with alanine at position +4)” returned a Kd of 275 µM and a dH of -4.02 kcal/mol.
The matching figures for “PY3_A+5 (ErbB4_PY3 peptide with alanine at position +5)”: 157 µM and -11.4 kcal/mol.
Taken in the same sequence, the figures for “PY3_A+6 (ErbB4_PY3 peptide with alanine at position +6)” were 135 µM and -4.78 kcal/mol.
The matching figures for “PY3_A−1 (ErbB4_PY3 peptide with alanine at position −1)”: 161 µM and -3.33 kcal/mol.
As for “PY3_A−2 (ErbB4_PY3 peptide with alanine at position −2)”, in test [1], the Kd is 151 µM and the dH was -6.19 kcal/mol.
Taken in the same sequence, the figures for “PY3_A−3 (ErbB4_PY3 peptide with alanine at position −3)” were 113 µM and -3.67 kcal/mol.
